The data set concerns the target T1, rDmeR (Vibrio parahaemolyticus RIMD 2210633) (UniProt Q87GM9).
T1 sequence: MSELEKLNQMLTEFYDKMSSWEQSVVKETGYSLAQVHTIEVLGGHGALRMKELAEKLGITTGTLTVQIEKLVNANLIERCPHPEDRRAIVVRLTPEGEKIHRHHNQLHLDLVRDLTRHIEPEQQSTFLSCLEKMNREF
Briefly: EMSA. The conditions noted are these: 10 mM Tris pH 7.4, 150 mM NaCl, 0.1 mM DTT, 0.1 mM EDTA or 0.5 mM CoSO4, 200 ng poly(dI:dC), 20 ng DNA, 0-1.0 ug rDmeR in 20 uL, 25 C 30 min, 6% native PAGE.

Consider “TAAGCGGCTGATTCCCAAACAAGGCCGCATATGTTCATGCGGGGAGGCATCAGATTGGCCAATCTTGAGTGCAGTGATGAACGCCTTTCTTAGTTTTCTATGTTGACTTTGTTTGATGGTCAAACTAAATTTAAATCAAATATTTTGATTATCAAACAAAATGAGCAATAACGATATGATTTATCTATGGCAATAGCACAACACACGC (double strand) [PdmeRF promoter probe (WT)]”, for which the binding result is on record as “binds”.

In the case of “CAAGGGCAACATCTTACAGCCATGACCGGTAAACAATGCATTTACCTAATTGACGACTTTGCGTCGGAATTAGATAGCCAACGTCGCAAGCGTCTTGCAGATTGCTTGAAAGAGACAGGCGCACAAGTATTTGTAAGCTCTATCACTGAAAACCAAATCGCCGACATGCTCGACGATAATGGCAAATTGTTTCATGTGGAACATGGCAGGATAGA (double strand) [PgyrB promoter probe]”, the binding result is on record as “no binding”.

The record behind these values is paper PMC9820535.
